Laboratory results from the nanobody polyreactivity screen of Harvey et al. (2022).

Experiment: yeast display, Sf9 membrane polyspecificity reagent, FACS + sequencing; frameworks hold sequencing errors
Summary of the method: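 After 36–48 hours of galactose induction, yeast (Saccharomyces cerevisiae BJ5465) displaying a synthetic nanobody library were stained at 4 °C for 1 hour with 10% biotinylated, detergent-solubilized Sf9 membrane reagent. Streptavidin microbeads enriched the stained cells before FACS sorting into low and high (top ~1%) gates on anti-HA and streptavidin fluorescence. Each clone's polyreactivity label reflects its gate of origin.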

Sequence | polyreactivity (PSR sort gate)
QVQLVESGGGLVQAGGSLRLSCAASGRTFIGYAMGWYRQAPGKERELVAASSSGGNTYYADSVKGRFTISRDNAKNTVYLQMNSLKPEDTAVYYCAAKGYRRVARYFIGDYWGQGTQVTVSS | low polyreactivity
QVQLVESGGGLVQEGGSLRLSCAASGSIFKPYAMGWYRQAPGKERELVAAINRGGTSTYYADSVKGRFTISRDNAKHTVYLQMNRLKPEDTAVYYCAAEGQDGRFYWGQGTQVTVSS | low polyreactivity
QVQLVESGGGLVQAGGSLRLSCAASGFIFYRNTMGWYRQAPGKEREFVAAIRWRGGSSYYADSVKGRFTISRDNAKNTVYLQMNSLKPEDTAVYYCAADTRPGYSGFEYWGQGTQVTVSS | high polyreactivity
QVQLVESGGGLVQAGGSLRLSCAASGSIFFEYAMGWYRQAPGKERELVASINRGGGSTYYADSVKGRFTISRDNAKNTVYLQMNSLKPEDTAVYYCAAQWKYRQSYLDYYWGQGTQVTVSS | low polyreactivity
QVQLVESGGGLVQAGGSLRLSCAASVSIFRVNTMGWYRQAPGKERELVATISSGARTNYADSVKGRFSISRDNAKNTVYLQMNSLKPEDTAVYYCATRYRRVYTWYDYWGQGTQVTVSS | high polyreactivity
QVQLVESGGGLVQAGGSLRLSCAASGRIFSRNAMGWSRQAPGKERELVAAISRSGGTTYYADSVKGRFTISRDNAKNTVYLQMISLKPEDTAVYYCAAYFWFYVQYEYWGQGTQVTVSS | high polyreactivity
QVQLVESGGGLVQAGGSLRLSCAASGSIFDWYAMGWYRQAPGKEGELVAAISSGDSTYYADSVKGRFTISRDNAKITVYLQMNSLKPEDTAVYDCAAEFHDDHPSFDYWGQGTQVTVSS | low polyreactivity
QVQLVESGGGIVQAGGSLRLSCAASVFTFSDYTMGWYRQAPGKERELVAAINRGGNTYYADSVKGRFTISRDNAKNTVYLQMNSLKPEDTALYYCAAASYYAPYYWGQCTQVTVSS | high polyreactivity
QVQLVESGGGLVQAGGSLRLSCAASGSIFQSYAMGWYRQAPGKERELVATITISDGSTYYADSVKGRFTISRDNAKNTVYLQMNSLKPEDTAVYYCAATDYISYGAPLRRGLNYDYWGQGTQVTVSS | low polyreactivity
EVQLVESGGGLVQAGGSLRLICAASGRTFQNYAMGWYRQAPGKERELVADITSGGSTYADSVKGRFTISRDNAKNTVYLQMNSLKPEDTAVYYCNADRTYPEPAEYYYWGQGTQVTVSS | low polyreactivity
QLQLVESGGGLVQAGGSLRLSCAASGSTFYTNAMGWYRQAPGKERELVAVITSRGGGTYYADSVKGRFTISRDNAKNTVYLQMNSLKPEDTAVYYCAAYPLVSWGRHGTKGDYWGQGTQVTVSS | low polyreactivity
QDQLVESGGGLVQAGGSLRLSCAASGGTFGPNAMGWYRQSPGKERELVAAISASGGITYYADSVKGRFTISRDNAKNTVYLQMNSLKPEDTAVYYCAAAITWIYSQAAFKIVQYDYWGQGTQVTVSS | low polyreactivity
QVQLVESGGGLVQAGGSLRLSCAASGYIFLRNAMGWYRQAPGKERELVAAIRRTGGSTYYADSVKGRFTISRDNAKNTVYLQMNSLKPEDTAVYYCAKRSYTGYEYWGQGTQVTVSS | low polyreactivity
QVQLVESGAGLVQAGGSLRLSCADSGIIFSSNAMGWYRQAPGKERELVASITSAGNTYYADSVKGRFTISRDNAKNTVYLQMNSLKPEDTAVYYCYARYYYQYFHFSWSYPYGSWGQGTQVTVSS | high polyreactivity
QVQLVESGGGLVQAGGSLRLSCAASGSIFRDNAMGWYLQAPGKERELVASISRRGGSTYYADSVKGRFTISRDNAKNTVYLQMNSLKPEDTAVYYCAARAVGGTVPTRYDYWGQGTQVTVSS | high polyreactivity
QVQLVESGGGLVQAGGSLRLICAASGTTFLSYAMGWYRQAQGKDRELVAAISWSGGRTYYAHSVKGRFTISRDNAKNTVYLQMNSLKPEDTAVYYCAAPHVPFTKHEYEYWGQGTQVTLSS | low polyreactivity
QVQLVESGGGLVQAGGSLRLSCAASGIFYFYAMGWYRQAPGKERELVAAITSSGGNTTYADSVKGRFTISRDNAKNTVYLQMNSLKPEDTAVYYCNADYFQDRLDYWGQGTQVTVSS | low polyreactivity
QDQHVESGGGLVQAGGSLRLSCAASGSIFPWYTMGWYRQAPGKERELVASITKSGARTYYADSVKGRFTISRDNAKNTVYLEITSLKPEDTAVYYCAASLWQRAKVRYQYWGQGPQVTVSS | high polyreactivity
QVQLVESGGGLVQAGGSLRLSCAASGITFKYYAMGWYRQAPGKERELVAAITRGGSTYYADSVKGRFTISRDNAKNTVYLQMNSLKPEDTAVYYCNKARTYELYWGQGTQVTVSS | high polyreactivity
QVQLQESGGGLVQAGGSLRMSCAASGKIFDADIMGWYRQAPGKERELVASNTDGRRTNYADSVKGRYTISRDSEKNTVYLQMNSLKAEDTAEYYCAAIAYPVVPTSFDYDSDYFHWGQGTQVTVSS | high polyreactivity
QVQLEESGGGIVQAGGSLRLSCAASGRIFGYYAMGWYRQAPGKERELVASIRRGTRTNYADSVKGRFTISRDNAKNTVYLQMNSLKPEDTAVYYCAATRFQFTTTPWYDYWGQGTQVTVSS | high polyreactivity
QVQLVESGGGLVQAGGSLRFSCAASGFTFASNAMGWYRQAPGQERELVAAITSGGRTYYADSVKGRFTISRDNAKNTVYLQMNSLKPEDTAVYYCAKPNGALKRYYYWGQGTQVTVSS | high polyreactivity

Sequence | polyreactivity (PSR sort gate)
QVQLVESGGGLVQAGGSLRLSCAASGRIFYFYAMGWYRQAPGKERELVASISSGGITNYADSVKGRFTISRDNAKNTVYLQMNSLKPEDTAVYYCAADYGYYSRLYYWGQGTQVTVSS | low polyreactivity
QVQLVESGGGLVQAGGSLRLSCAASGSTFVYYAMGWYRQAPGKERELVAVISDDGGTYYADSVKGRFTISRDNAKNTVYLQMNSLKPEDTAVYYCAADPYWFFPHYDSWGQGTQVTVSS | low polyreactivity
QVQLVESGGGLVQAGGSLRLSCAASGRIFYVYGMGWYRQAPGKERELVGAISKRGDNTYYADSVKGRFTISRDNAKNTVYLQMNSLNPEDTAVYYCNVKRYGGRSDYWGQGTQVTVSS | high polyreactivity
QVQLVESGGGLVQAGGSLRLSCAASGSTFSRYAMGLYRQATGKDRELVAAISWRGGRTYYADSVKGRFTISRDNAKNTVYLQMNSLKPEDTAVDYCAGLGDDATSYGYWGHGTQVTVSS | high polyreactivity
QVQHVESGGGLVQAGGSLRLSCAASVRTFIYYAMGWYRQAPGKERELVASITTGGRTYYADSVKGRFTISRDNAKNTVYLQMNSLKPEDTAVYYCNARWYRTGSTYHEDYWGQGTQVTVSS | high polyreactivity
QVQLVESGGGLVQAGGSLRLSCAASGRIFEDYAMGWYRQAAGKERELVARISSGDSTNYADSVKGRFTISRDNAKNTVYLQMNSLKPVVTAVYYCAAEGGVQEFDYWGQGTQVTVSS | low polyreactivity
QVQLQESGGGLVQAGGSLRLSCAASGTIFTARFMGWYRQAPGKERELVATITDGGNTNHADSVKGRFTISRDNAKNTVYLQMNSLKPEDAAVYYFAAGEVDNDTLLYWGQGSQVTVSS | low polyreactivity
QVQLVESGGGLVQAGGSLRLSCAASGSTGVNTMGWYRQAPGKERQLVAAIRATGGSTYYADSVKGRFTISRENAKNTVYFQMNSLKPEDTAVYYCNAYRRSYRWYGDLGEYWGQGTQVTVSS | high polyreactivity
QVQLVESGGGLVQAGGSLRLSCAASGLTFRVYAMGWYRQAPGKERELVAAITGGGRTYYADSVKGRFTISRDNAKNTVYLQMNSLKPEDTAVYYCAAAGYYVWGQGTQVTVSS | high polyreactivity
QVQLVESGGGLVQAGGSLRLSCAASGRTFNGYAMGWYRQAPGKERELVAAISSSGGSTYYADSVKGRFTISRDNAKNTVYLQMNSLKPEDTAVYYCAARRANGFNYWGQGTQVTVSS | high polyreactivity
QVQLVESGGGLVQAGGSLRLRCAASGSIFFYYVMGLSRQAPGKERELVAVISSGGGSTYYADSVKGRFTISRDNAKYTVYLQMNSLKPEDTAVYYCAAGTYYKFYYWGQGTQVTESS | high polyreactivity
QVQLVESGGGLVQAGGSLRLSCAASGRILGYYSMGWYRQAPGKERELVAGITSGGSTYYADSVKGRFTISRDNAKNTVYLQMNSLKPEDTAVYYCATVHGVYQRRYYFWGQGTQVTVSS | high polyreactivity
QVQLVESVGGLVQAGGSLRLSCAASGSTFDKYAMGWYRQAPGKERELVATISQSGASTYYADSVKGRFTISRDNAKNTVYLQMNSLKPEDTAVYYCAARSSTRVWYWGRYYYWGQGTQVTVSS | high polyreactivity
QVQLVESWGGLVQAGGSLRLSCAASGSTFIGYAMGWYRQAPGKERELVAAISWSGGSTYYADSVKGRFTISRDNAKNTVYLQMNSLKPEDTAVYYCAASQYVQGHKYYYWGQGTQVTVSS | high polyreactivity
QVQLVESGGGLLQAGGSLRLSCAASGRTFLGYAMGWYIQAPGKERELVAAISWDGTSTYYADSLKGRFTISRDNAKNTVYLPMNSLKPEDTAVYYCAAQLTDYQSKTLSYDYWGQGTQVTVSS | low polyreactivity
QVQLVESGGGIVQAGGSLRLSCAASGFIISYNAMVWYRQAPGKERELVAAISSRGGSTYYADSVKGRFTISRDNAKNTVYLQMNSLKPEDTAVYYCAVASRRVYTAPYDYWGQGTQVSVSS | high polyreactivity
QVQLVESGGGLVQAGGSLRLSCAASGSTFRVYAMGWYRQAPGKERELVAAITRIGGRTYYADSVKGRFTISRDNAKNTVYLQMNSLKPEDTAVYYCAARYPGGYSSGYNYWGQGTQVTVSS | high polyreactivity
QVQLVESGGGIVQAGGSLRLSCAASGLTFPQYAMGWYTQAPGKERELVAAISWNGGITYYADSVKGRFTISRDYAKNTVYLQMNSLKPEDTAVYYCNDDGGYGDYYYWGQGTQVTVSS | low polyreactivity
QVKLVESGGGLVQAGGSLRLSCAASGRTFVWNAMGWYRQAPGKERELVAAISSSGTSTYYADSVKGRFTISRDNAKNTVYLQMNSQKPEDTAVYYCAKDLLYQPTIRDYWGQGTQVTVSS | low polyreactivity
QVQLVESGGGLVQAGGSLRLSCAASGSTFAFYAMGWYRQAPGKERELVAAITWRVGSTYYADSVKGRFTISRDNAKNTVYLQMNSLKPEDTAVYYCAVDIPFYDSDYWGQGTQVTVSS | low polyreactivity
QVQLVESGGGLVQAGGSLRVSCAASGSSFTYNAMGWYRQAPGKERELVASINSRGGTTYYADSVKGRFTISRDNAKNTVYFQMNSLKPEDTAVYYCATDVYRLGEYDYWGQGTQVTVSS | low polyreactivity
